Results as given in publication PMC8599769.
pKd: −log10 of the molar value. Like-named read-outs stand apart in the source and are kept apart here.

Biological target: T1, PhoB~P (phosphorylated response regulator PhoB) (Escherichia coli) (UniProt P0AFJ5)
T1 sequence: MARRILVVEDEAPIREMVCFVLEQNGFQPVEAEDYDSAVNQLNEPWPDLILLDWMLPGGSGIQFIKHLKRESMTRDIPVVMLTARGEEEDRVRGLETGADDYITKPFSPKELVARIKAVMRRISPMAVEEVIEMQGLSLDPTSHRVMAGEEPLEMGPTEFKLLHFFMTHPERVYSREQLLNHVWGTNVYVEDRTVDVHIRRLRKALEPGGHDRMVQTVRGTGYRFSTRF
Assay: EMSA

Row | Substance | pKd | pKd (cited from earlier work)
1 | ATCACATGGTCCTGCTGGAGTTCGTGACCGCCGCCGGGATCACTCTCGGCATGGACGAGCTGTACAAGTAGCTGACCCGGGGAGGGTCGTTCTGTCATAAAACTGTCATATTCCACCGGGAAGGCTTGAGCTCCTAGATACATTCAAATATGTATCCGCTCATGAGACAATAACCCTGATA (double strand) [Decoy DNA (1 PhoB consensus site)] | 6.70 | –
2 | phnC promoter PhoB site DNA | – | 5.82
